Data from patent US20140302043A1.

Biological target: hemagglutinin (HA) of H1N1 virus strain A/Brazil/1403/2003 (influenza A virus H1N1, A/Brazil/1403/2003)
Assay: cell-based or functional assay

Substance: mAb CH65, recombinant intact IgG1 (antibody)
- mAb minimum effective concentration (EC99, microneutralization on MDCK cells): 3.12 µg/mL

Substance: mAb CH67 (antibody)
- mAb minimum effective concentration (EC99, microneutralization on MDCK cells): 0.195 µg/mL
